Experimental data: the supplement of paper PMC10126150
± gives the standard deviation of the averaged measurements.

System: ATP
Assay: switch fluorescence ratio, 500 uM ATP over buffer (Cy3 cluster intensity, sum of 5 cycles each) (fold (ratio)); higher = stronger signal-on switching upon ATP binding; sequences stand for … in TCGTCGGCAGCGTCAGATGTGTATAAGAGACAGTTTTTTTTTTTTTTTTTTTTTTTTT…TC
Conditions: aptamer strand: ATP DNA aptamer (quencher-CACCTGGGGGAGTATTGCGGAGGAAGG + anchor), 100 nM annealed; ATP concentration: 500 uM
Method in brief: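 Clusters carrying Cy3-labelled switching strands on a modified Illumina MiSeq flow-cell were annealed to 100 nM quencher-labelled ATP aptamer and imaged in selection buffer. They were imaged again after 15 min with 500 uM ATP at 22 °C, over five buffer/ATP cycles with NaOH stripping and re-annealing in between. For each cluster, the fluorescence ratio is the summed Cy3 intensity of the target cycles divided by that of the buffer cycles, averaged per switch-domain sequence. Clusters outside 100-1000 RFU were left out.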
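Further: ATP exposure 15 min at 22 °C before imaging.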

Sequence | switch fluorescence ratio
GATGGGTTGG | 0.9899 ± 0.008
GGATAGTCAG | 0.984 ± 0.016
TTCCGGGGGG | 1.02 ± 0.054
CGTCTGGCTG | 1 ± 0.057
GACAGTTTGT | 1.01 ± 0.033
GGGAAGTCAG | 1.002 ± 0.0098
TTATTAGTAG | 1.002 ± 0.0049
ACGTTTGTTA | 1.002 ± 0.0059
TTTTCAGCTG | 1.03 ± 0.016
TTCTAAAGAT | 0.969 ± 0.034
TAATGTAACG | 1 ± 0.063
GTAATAGGTC | 1.013 ± 0.0088
GATTCACGGT | 1.01 ± 0.02
GGAGAACTTA | 1.04 ± 0.051
AGCTTGATGT | 1.02 ± 0.053
TCCCCCTGGT | 1.37 ± 0.069
TACTTATATG | 1.03 ± 0.016
CGAGATGTGG | 1.02 ± 0.011
AGAGATTGTT | 0.94745 ± 0.00025
AACTGTTTGC | 0.983 ± 0.04
GTTTTCAAGT | 0.979 ± 0.039
TTCGGTAGTG | 0.9923 ± 0.0083
ATTCGGTTGT | 1.001 ± 0.0059
GACTTTTAGG | 1.01 ± 0.027
GATATTTGGA | 0.996 ± 0.041

Sequence | switch fluorescence ratio
AGTTTTTTTG | 0.99 ± 0.017
GATGGGGCGC | 0.975 ± 0.069
GATTCACGTT | 1.052 ± 0.0043
AAAGTGTCGT | 0.973 ± 0.028
CGTTAGGTAT | 0.969 ± 0.033
CCTGGGGGTT | 1.6 ± 0.79
TTTAAGCGAT | 1.03 ± 0.015
TTTATATGTA | 1.01 ± 0.022
CGATTGGAGT | 0.9864 ± 0.0058
CATGTAATTG | 1.02 ± 0.015
AATTTAATAT | 1.01 ± 0.016
ACAGGGGAGT | 1.03 ± 0.02
TTTGTTTCTT | 0.977 ± 0.032
AGATTGCTTG | 0.977 ± 0.03
TTGTTTATAA | 1.02 ± 0.083
GTAATAGGGC | 0.983 ± 0.054
GGACATATTT | 1.03 ± 0.042
GTCAGTGGGT | 0.9682 ± 0.0079
CATGATGGAG | 0.999 ± 0.032
TGGGGAACTT | 1.03 ± 0.041
TATGTTAATG | 0.999 ± 0.016
TGCTGGTTTT | 1.01 ± 0.037
CCTGGTCGAC | 0.986 ± 0.015
AAGTCTCTCC | 1.06 ± 0.018
CGCTTGAAAT | 1.05 ± 0.018

Sequence | switch fluorescence ratio
TTTTTTGTTC | 1.14 ± 0.3
CCGCTCGAAT | 3.36 ± 0.38
CGGATTGGGA | 1.002 ± 0.0026
GGAGCTGCGT | 1.056 ± 0.0098
ACATGGGTGG | 0.962 ± 0.051
GCGAATCGTA | 0.999 ± 0.049
ATGAATTTGC | 0.979 ± 0.044
GGGGAGGCAT | 0.954 ± 0.027
TACGGGCGCG | 0.981 ± 0.017
TATCGTTTAA | 0.987 ± 0.032
TTTCTAGTCG | 0.971 ± 0.019
ATTGTGCCGA | 0.972 ± 0.011
GTAGTAAGAT | 1.07 ± 0.064
GGGTATCAGG | 0.965 ± 0.016
AACTGGGGGA | 1.06 ± 0.054
ACGTAGACGT | 1.02 ± 0.018
GTGACGAGGG | 0.981 ± 0.013
TGGCCGGCTG | 1 ± 0.074
GGCATTCATT | 0.989 ± 0.033
TCGATGCAAG | 1.23 ± 0.015
CGTCCTTGTT | 0.991 ± 0.029
ATCGGTCATG | 0.993 ± 0.013
ATGGAGGCTT | 0.975 ± 0.018
TGATGTTAAA | 0.998 ± 0.01
ATAGAGCTTG | 0.997 ± 0.024

Sequence | switch fluorescence ratio
GGGAGTTTTG | 1 ± 0.018
TTCGGGGGTG | 1.01 ± 0.031
ATCATGCATT | 0.989 ± 0.025
AATACGACGG | 1.14 ± 0.014
AGGCCTTTTC | 1.008 ± 0.0026
CCTGGCGTCG | 1.005 ± 0.0083
CGTTATTTCT | 1.01 ± 0.052
TACTGGGTTC | 0.987 ± 0.047
TTTTATCCA | 1.016 ± 0.0095
ATATTGGCGC | 1.01 ± 0.019
CGGGTAATCG | 1.01 ± 0.0082
CGGTTTGGGG | 0.991 ± 0.027
AGATTTTGCA | 0.989 ± 0.027
ATTAAGGTAA | 1.01 ± 0.033
TATGTTAGTG | 1.01 ± 0.042
GATGTCAAGA | 1.01 ± 0.023
TTAGGCGGTT | 1 ± 0.017
TGAGAGTCAG | 0.986 ± 0.017
CGTAGGGGGC | 1.03 ± 0.023
AGCAAAAGAA | 1.12 ± 0.15
GCCGGATTGG | 0.956 ± 0.021
CAATAGTCAG | 1.04 ± 0.015
GCTCTTGTTC | 0.9975 ± 0.0083
GGCTTGTGTA | 0.965 ± 0.015
ATTCGTGCGC | 1.071 ± 0.0046

Sequence | switch fluorescence ratio
ATGATTCGTG | 0.972 ± 0.028
GCCTTAAAGG | 1.005 ± 0.0029
AATTTTTCGG | 0.994 ± 0.042
GGGAAGGAGG | 1.02 ± 0.013
TGGAATGTTG | 1.02 ± 0.0078
ACAAGGCAGA | 1.04 ± 0.013
GGGGTTGACA | 1.04 ± 0.051
AGTGTGGTGG | 0.98944 ± 7.4e-05
TGGTGAAAGT | 0.982 ± 0.025
TTGTAAATGA | 1.02 ± 0.015
GACTTCTTAG | 0.9573 ± 0.0041
AGATATACGG | 1.02 ± 0.034
GAATGGGTCG | 0.989 ± 0.033
GGGCCATTGG | 1 ± 0.018
TAATTATAGT | 1.01 ± 0.011
GACTATTAGC | 0.984 ± 0.028
CATCGGCGAT | 1.56 ± 0.038
TTAGAGGGGT | 0.992 ± 0.03
AGGAGAGGGT | 0.967 ± 0.013
GGTTAAGGGT | 0.9892 ± 0.0056
ATGTGTAACC | 1 ± 0.039
TGGAAAGTGT | 0.987 ± 0.018
AGGGGTAAGG | 1.03 ± 0.033
CAAGTATTGT | 0.999 ± 0.025
GTTTTTAAGT | 1.03 ± 0.04

Sequence | switch fluorescence ratio
TCTTGTTTGG | 0.994 ± 0.049
CGGCAACGGT | 1.01 ± 0.011
CTTCAGTTAC | 1.82 ± 0.19
GATGTTGTAT | 1.01 ± 0.021
GTTGTTGAGT | 0.997 ± 0.0024
TGAGTCAAGC | 1.01 ± 0.076
TTTGGTGGTA | 0.984 ± 0.03
TACGACACCT | 1.73 ± 0.027
AGAGGGCTAT | 0.989 ± 0.038
ATTTACGGGT | 1.015 ± 0.0082
TGGTATTATT | 0.998 ± 0.024
TTTGGATCGT | 0.981 ± 0.025
GAGTTATTTT | 0.976 ± 0.017
ATCGGGTTAG | 0.998 ± 0.016
CGGCCAACGC | 1.17 ± 0.028
ACGCGGCGAT | 1.08 ± 0.026
TGGGGTGTTT | 0.983 ± 0.045
GTTTTTTCCG | 0.992 ± 0.012
GGGAGGGTAT | 1.01 ± 0.036
AGGTAGTCTG | 0.9756 ± 0.003
CCGTTCTCGC | 1.31 ± 0.048
AGTGTGGGGA | 1.03 ± 0.028
TGGAAGTTGG | 0.989 ± 0.023
TAATTGT | 0.976 ± 0.03
TTGGCTACAA | 0.985 ± 0.037

Sequence | switch fluorescence ratio
GGAGACGGGA | 1.06 ± 0.016
TTATACGCTT | 1.1 ± 0.017
GCGTCTATGA | 1 ± 0.016
AGGGGGGTAT | 0.993 ± 0.027
GTTGATCTGC | 1 ± 0.029
TAATATTTAA | 1.05 ± 0.009
GGAGCTCGGG | 0.975 ± 0.038
TGGATGTTTA | 1.03 ± 0.024
TTGGGGTTTC | 0.998 ± 0.033
AGGAGGAAGT | 1.01 ± 0.026
ATCTAGGTAT | 1 ± 0.029
CTTTGGAAAT | 0.9997 ± 0.0023
CGTTGCTCGG | 1 ± 0.0083
AGTTCAAACC | 1.04 ± 0.062
TATGCAGTCA | 1.01 ± 0.029
GGGAAATTTG | 0.991 ± 0.026
GGTGTTGGAC | 0.997 ± 0.019
GGGTGGCTTT | 0.9872 ± 0.0083
TCGGGAACAG | 1.02 ± 0.035
ATAGAGAGAG | 1.02 ± 0.014
TGCTTCCGAA | 1.52 ± 0.082
TGGGGTAGTG | 1.01 ± 0.025
GTATAGGGGC | 0.977 ± 0.025
TGCGGGGGAT | 1.02 ± 0.033
GTTTTGAAAA | 0.949 ± 0.019

Sequence | switch fluorescence ratio
TGAGATGGTC | 1.004 ± 0.01
TATTTTGACG | 0.9151 ± 0.0046
GAATAGCATA | 1.05 ± 0.018
TTTTGTTTTA | 1 ± 0.015
TCCGACTGAT | 1.72 ± 0.05
AGCTGGCCCT | 1 ± 0.013
TTTTCTGACC | 1.02 ± 0.012
ATGGGAATTT | 0.996 ± 0.028
TTGGATTTAG | 0.998 ± 0.0044
TGCTAAATTA | 1.01 ± 0.011
GAGTCGGATG | 0.967 ± 0.012
AGGGGAGACC | 0.9775 ± 0.0096
TGGGGGGAGC | 1 ± 0.022
AGGGGTATGG | 0.998 ± 0.017
TTTTTGTTGG | 1 ± 0.034
TTCGTAATGT | 1.036 ± 0.0083
TCACTGTTTC | 1.011 ± 0.0076
TCCGATGTTT | 1.76 ± 0.27
GATGTATTCG | 1.001 ± 0.0089
CGGAGGAGCA | 0.968 ± 0.061
ACTGGAGGGC | 1.08 ± 0.1
CAGTAGTAGT | 1.02 ± 0.0097
CAAGGGGGAT | 1.01 ± 0.013
AATCGGTGCG | 0.986 ± 0.049
TGTTTCCGGT | 1.44 ± 0.59
